# Assay results: article PMC7335352
# B1: 30-bp dsDNA, 6-FAM (dsDNA)
# DNA 1: CTGTCACACCCTGTCACACCTGTCACAC
# DNA 2: GTGTGACAGGTGTGACAGGGTGTGACAG
# Key:
# [1] = biological target: condensin I holocomplex (CI) (Homo sapiens, UniProt O95347;Q9NTJ3;Q15021;Q9BPX3;Q15003 1-1197;1-1288;1-1401;1-1015;1-741); experiment: fluorescence polarization; no ATP; 75 mM NaCl; FP: 20 mM Tris pH 7.5, 75 mM NaCl, 2.5% glycerol, 1 mM DTT, room temp, 50 nM DNA; EMSA: 20 mM HEPES pH 8, 300 mM KCl, 5 mM MgCl2, 1 mM DTT, 10% glycerol, on ice; curtains: 40 mM Tris-HCl pH 7.5, 125 mM NaCl, 5 mM MgCl2, 1 mM DTT, 0.5 mg/mL BSA, 37 C; conditions: protein: recombinant; tags: 6xHis-SMC4; CAP-H 2xStrep; copies: 1;1;1;1;1; label: 6-FAM on reverse strand; blunt
# [2] = biological target: condensin II holocomplex (CII) (Homo sapiens, UniProt O95347;Q9NTJ3;P42695;Q86XI2;Q6IBW4 1-1197;1-1288;1-1498;1-1143;1-605); experiment: as above; conditions: protein: recombinant; tags: 6xHis-SMC4; CAP-H2 2xStrep; copies: 1;1;1;1;1; label: 6-FAM on reverse strand; blunt
binder,measurement,setting,value
B1,Kd,[1],3000 ± 300 nM
same,Kd,[2],1200 ± 100 nM
